Reference: patent publication US20220041724A1 (GRAND DECADE DEVELOPMENTS, published 2022)

What was measured:
[1] = target: T1, Recombinant mouse CTLA-4/human IgG1 chimera (R&D Systems) (mouse; human, UniProt P09793 36-162, limits assumed); experiment: ELISA: mouse CTLA-4/human IgG1 chimera coated at 1 or 5 µg/mL; HEK293 conditioned medium with 9D9-scFv at 130 ng/mL; anti-mouse IgG-HRP, OD 450 nm
T1 construct: Bought reagent; also called recombinant mCTLA-4/Fc; recombinant CTLA4 protein; not shown: human IgG1 portion (Fc) of the bought chimera
Protocol: (§1) Plasmid encoded anti-CTLA4 scFv bound to recombinant CTLA4 protein. Transfection-derived secreted anti-CTLA4 (scFv) were evaluated for their binding capacity to CTLA-4. Recombinant mouse CTLA-4/human IgG1 chimera (R&D Systems) were immobilized in 96-well plates (1 or 5 μg/mL, or […]) for 18 hr at room temperature. Wells were washed three times with 0.1% Tween in PBS and blocked with 1% BSA in PBS. Conditioned medium from HEK293 cells transfected with 9H10-scFv (168 ng/mL) or 9D9-scFv (130 ng/mL) was added to the wells, and incubated for 2 h at room temperature. Wells were washed three times, and anti-mouse IgG-horseradish peroxidase (Jackson ImmunoResearch, 0.2 μg/mL) were added and incubated for 1.5 hours at room temperature. Wells were again washed three times, developed with HRP Substrate Reagent (R&D Systems) and stopped with Stop Solution, 2N sulfuric acid (R&D Systems). Optical density of each well was measured at 450 nm.

[2] = target: T1, Recombinant mouse CTLA-4/human IgG1 …; experiment: ELISA: mouse CTLA-4/human IgG1 chimera coated at 1 or 5 µg/mL; HEK293 conditioned medium with 9H10-scFv at 168 ng/mL; anti-mouse IgG-HRP, OD 450 nm
Protocol: as §1

Row | binding result [1] | binding result [2] | Binder
1 | binds |  | 9D9-scFv (Igκ-HA-9D9 VLC-Linker-9D9 VHC-Linker-mIgG1 Fc domain, anti-CTLA-4 scFv) (scFv, scFv (VL-linker-VH) with an N-terminal HA tag, fused to a mouse IgG1 Fc domain; It was secreted into conditioned medium of transfected HEK293 cells; also called plasmid encoded anti-CTLA4 scFv) scFv: YPYDVPDYAGAQPARSDIVMTQTTLSLPVSLGDQASISCRSSQSIVHSNGNTYLEWYLQKPGQSPKLLIYKVSNRFSGVPDRFSGSGSGTDFTLKISRVEAEDLGVYYCFQGSHVPYTFGGGTKLEIKRADAAPTVSGSGGGSGGGSGGGSEAKLQESGPVLVKPGASVKMSCKASGYTFTDYYMNWVKQSHGKSLEWIGVINPYNGDTSYNQKFKGKATLTVDKSSSTAYMELNSLTSEDSAVYYCARYYGSWFAYWGQGTLITVSTAKTTPPSVYPLAPVDSSGSGGCKPCICTVPEVSSVFIFPPKPKDVLTITLTPKVTCVVVDISKDDPEVQFSWFVDDVEVHTAQTQPREEQFNSTFRSVSELPIMHQDWLNGKEFKCRVNSAAFPAPIEKTISKTKGRPKAPQVYTIPPPKEQMAKDKVSLTCMITDFFPEDITVEWQWNGQPAENYKNTQPIMDTDGSYFVYSKLNVQKSNWEAGNTFTCSVLHEGLHNHHTEKSLSHSPGK
2 |  | binds | 9H10-scFv (Igκ-HA-9H10 VLC-Linker-9H10 VHC-Linker-mIgG1 Fc domain, anti-CTLA-4 scFv) (scFv, scFv (VL-linker-VH) with an N-terminal HA tag, fused to a mouse IgG1 Fc domain; It was secreted into conditioned medium of transfected HEK293 cells; also called plasmid encoded anti-CTLA4 scFv) scFv: YPYDVPDYAGAQPARSDIVMTQSPSSLAVSVGEKVTISCKSSQSLLYGSSHYLAWYQQKVGQSPKLLIYWASTRHTGIPDRFIGSGSGTDFTLSLSSVQAEDMADYFCQQYFSTPWTFGAGTRVEIKSGSGGGSGGGSGGGSQVQLLQSESELVKPGASVKLSCKTSGYTFTDYYIHWVKQKPGQGLEWIGLINPNNDGTNYNQKFQGKATLTADKSSSTAYMELNSLTFDDSVIYFCARASSRLRMARTTSDYYAMDYWGQGIQVTVSSVDSSGSGGCKPCICTVPEVSSVFIFPPKPKDVLTITLTPKVTCVVVDISKDDPEVQFSWFVDDVEVHTAQTQPREEQFNSTFRSVSELPIMHQDWLNGKEFKCRVNSAAFPAPIEKTISKTKGRPKAPQVYTIPPPKEQMAKDKVSLTCMITDFFPEDITVEWQWNGQPAENYKNTQPIMDTDGSYFVYSKLNVQKSNWEAGNTFTCSVLHEGLHNHHTEKSLSHSPGK
